Several values for one entry are separate records, joined by “and”; a condition that tells them apart may be missing. Equal entries are not always repeated.
What was measured:
[1] = target: truncated MLV CA-CTD (residues 132–218, CA-CTDΔCAH) (murine leukemia virus (MLV)); experiment: crystal structure; X-ray, SAD with cobalt, 1.89 Å, space group P3(1)21; crystals grown at 20 °C, 37 mg/mL protein, 4% PEG 3350, 0.1 M Hepes pH 8.2, 5 mM each CoCl2, CdCl2, MgCl2, NiCl2
[2] = target: MLV Gag polyprotein in immature virus particles (immature CA lattice) (murine leukemia virus (MLV)); experiment: cryo-EM structure; cryo-ET and subtomogram averaging of the CA layer in purified, fixed immature MLV particles (PR D32L); 79 particles, sixfold symmetry, 6.6 Å; crystal structures fitted as rigid bodies
[3] = target: the molecule itself; experiment: cryo-EM structure; cryo-ET and subtomogram averaging of the CA lattice in purified, fixed mature MLV particles; 134 virions; hexamer 7.2 Å, pentamer 8.6 Å; repeated with a second preparation (8.1 Å); crystal structures fitted as rigid bodies

“truncated MLV CA-CTD (residues 132–218, CA-CTDΔCAH) (domain or fragment)” was tested. Which stoichiometry N [1] did it give?
The stoichiometry N was 2.

How did the stoichiometry N [2] turn out when “MLV Gag polyprotein in immature virus particles (immature CA lattice) (natural protein)” was run?
The stoichiometry N was 6.

B1: MLV CA (capsid) protein in mature virus particles (mature CA lattice) (natural protein)
chain: PLRAGGNGQLQYWPFSSSDLYNWKNNNPSFSEDPGKLTALIESVLITHQPTWDDCQQLLGTLLTGEEKQRVLLEARKAVRGDDGRPTQLPNEVDAAFPLERPDWDYTTQAGRNHLVHYRQLLLAGLQNAGRSPTNLAKVKGITQGPNESPSAFLERLKEAYRRYTPYDPEDPGQETNVSMSFIWQSAPDIGRKLERLEDLKNKTLGDLVREAEKIFNKRETPEEREERIRRETEEKEERRRTEDEQKEKERDRRRHREMSKLL
notes: CA (capsid) protein of murine leukemia virus, the product of cleavage of Gag by the viral protease; 263 residues (CA-CTD printed as residues 132-263); numbers count on: the CA protein; also called mature MLV CA; mature CA hexamer; source: HEK293T, transfected with the infectious clone pRR390; in purified mature virus particles, fixed with 1% paraformaldehyde
B1 was tested. Which “stoichiometry N” value [3] did it give?
The value was 6 and 5.
